Laboratory results from IntAct's records for PubMed 23055042.

B1: Protein Bop (Homo sapiens), Q7L3V2 (parent)
chain: MPRGRCRQQGPRIPIWAAANYANAHPWQQMDKASPGVAYTPLVDPWIERPCCGDTVCVRTTMEQKSTASGTCGGKPAERGPLAGHMPSSRPHRVDFCWVPGSDPGTFDGSPWLLDRFLAQLGDYMSFHFEHYQDNISRVCEILRRLTGRAQAWAAPYLDGDLPLPDDYELFCQDLKEVVQDPNSFAEYHAVVTCPLPLASSQLPVAPQLPVVRQYLARFLEGLALDMGTAPRSLPAAMATPAVSGSNSVSRSALFEQQLTKESTPGPKEPPVLPSSTCSSKPGPVEPASSQPEEAAPTPVPRLSESANPPAQRPDPAHPGGPKPQKTEEEVLETEGDQEVSLGTPQEVVEAPETPGEPPLSPGF

Variants of: B1
Settings: with vdac1_human VDAC1, P21796
vdac1_human VDAC1, P21796, sequence (P21796 whole entry): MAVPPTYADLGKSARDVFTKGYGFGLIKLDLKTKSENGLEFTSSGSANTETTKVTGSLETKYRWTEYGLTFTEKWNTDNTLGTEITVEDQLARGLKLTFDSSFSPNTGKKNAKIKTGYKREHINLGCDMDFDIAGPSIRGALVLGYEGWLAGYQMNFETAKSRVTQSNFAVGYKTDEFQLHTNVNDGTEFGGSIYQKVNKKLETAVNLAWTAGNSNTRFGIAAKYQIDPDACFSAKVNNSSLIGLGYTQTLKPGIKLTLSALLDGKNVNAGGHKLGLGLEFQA

Row | effect of a mutation on the interaction | Variant
1 | decreasing interaction strength | L118A
